Laboratory results reported in a protein production outcome set (Wang et al. 2014).

Test: label from the status in PepcDB records

Sequence	protein production
METLLHAKLLLSAEVESLKSGSFDQTYVKKAEHIISGESYQLVQQFVDKFKGKISISGEISTSSVIAALNDFLNVEVFKMGQENEMLFLAIALLQTFIQNNYTGPAARLKAISGLFGKTGIEIGAVNTALSRSLAIMGQPAYEFMDDPLYLVLSLLLLERITGQKSLFDVTPDQEIPLPIISAESTPGLLAVAYWWWARALLTQLSLIPEPSGFQASVASAIYQSADLAYAITKELPESIHEDFKRELCAMYYLENVKCSLAINTEHLCLPSLTRAKKITNFEFVMTGARATRTKYQQKAHAGLIILAKSFTFQNFALRTTSATPETFALESDLLLEKPHFESIADEPLDEQIYSKRQKVDLNEGYEEDKLLPLALRQENIPKLLLDLNPNDQPTLSDYDNIQLLLRLYTIKNTTPAKDPLVEEELTALLSRILYQNGDKNWSIFARSLWERSIIETTKAKTIERGLLQMQSLVEELDLKIKSKLVPSSSEINVASRLSYIHQLPFIPRWQLDATLAEKYMSLGILKSAVEIYERLGMACETALCYAAVGDEKKAEEILLQRINENDSDARAYSILGDIKQDPSLWEKSWEIGKYVNAKNSLAKYYFNPPPKSGAQPNYSATLKHLNDSLRQYPLSFETWYFYGCVGLQCGKMQIAAEAFTRCVSLDPYHALSWSNLSAAYTKMDKLKEAYSCLKRAISCDAQKNWKIWENYMLVAVKLNEWEDVLTACKQLVSIRRDKSGEGSIDLPIIEKLVELLVTSEYPEEPQQLSYFQKSCTEFICNTLPQVITTSARCWRLVARVELWRKRPWAALECHEKAYRAISHNPDLEVEEKVWNDTVDACEDLVAAYESLGEMEGKYGPGSLVCKDWKYKCRSTIKALMSKGKGRWDDSPGWDRLVEARSQI	failed
NITPLKEVQLALAEREAMMQALFDQASQFTALLTPTGKVVKVNQRALDFAGITVDEIVDQDFWETPWWQASEQLKADLKSAIHQAAQGILIRYDVENLGNNGQKVILDFSIRPIYDTDQRIIFLLCEGRDITDKFRIQEALAESEERFRQTFQTTAVSSALISLD	failed
MRPAHICLAVLVAAVWGVNFTVIEVGLAHFPPLLFSALRFLAAALPAVFFVGRPKVAWKWIVAVGLVLGVAKFGLLFIGMDAGMPAGLSSLVLQIQAVFTALIAFAALGERPTGIRLAGMAVALCGVGLAAVDEGTGGPLGAFALVIGAAVCWGASNVLTRKASPPDPLNFMVWVSTVPVVPLLGLSLLTEGPSADLNALGSLDWQGAGVILYVAWITTVFGFGAWGWLLHRHPASTVAPFSLLVPVFGMSSAALFLGEPIGPMRWGAAALLAGGVALTSLAPGKERSGGPNTLDLRGVGIHEAGR	failed
MRETLERLLASETFGRSERARKLIRYLVEREQAGEADRLKGFSIAMDVFGKDGDFDPSTDAVVRVQAGRLRELLQQYFANEGIAEPVRIAIPRGGYVPAYELNAIRLPEVAKPAEQAAAAAAPAEHPSAAEDAVAPDASLAPAAAPVPSVARHLRFFWMAIAVVIAMLGVLILRQGSGALLAGGHLPATFESAGLTSSIAPSPVSEALPLVYIAVKASGADAGRIAASLRAGLSGFDTIDFIGRDTVDKTDPVNNPTSFIFDILPGPNTGDITIELQSMASGRVLLSRNLTPADSTPTAIEDRVADMLSSALPASGTIYNYIEQTGTPNGLTECLLLNDKYYLDQNARTHEAAYRCLETLANSGAKSSLVYSELASLQVEAVSDHYVYPPNATIEKAVEFAHRGVQMGPTSPYAHRAYGYVSSRLGNTDEAIRWMRKAYELNPYDLGMAAAYGYGLIFAGRYAEGTPILTHAAETFSGHSTWWDYGLFVGDFMLGDMNKAIAASMALRTTATKSHYLAARLIGAKAAGQDSLVTTLLNELNTKFPKFAADPRSTFVERKYPADLTDRLVQALRAAGLGSAS	failed
MLPAYIKIHDAIKKEIDKGTWKIGQRLPSERDLADDYSVSRMTLRQSITLLVEEGILERRVGSGTYVASHRVQEKMRGTTSFTEIVNSQGRKPSSKLISFQRKLANETEIQKLNLSQSDYVVRMERVRYADKVPLVYEVASIPENLIKGFEQSEVTEHFFKTLTENGYEIGKSQQTIYARNASERVASHLEVNAGHAILALTQVSYFTDGKPFEYVHGQYVGDRFEFYLENN	failed
MTDNRPCRKDLLDWINVVSFAVDDVKLFLDTHPCNKEAMEFFDEFKKQRVQALKEYAKYYGPLTLDTASTCTERWNWINEPWPWQEGGCLEHHHHHH	failed
MMPLKDGDFVLINYTVKVVEDGSERVIDTTLEEVAKKSGIYDPKRVYKEFPVIVGKTSLLGPLEKVLKELDVGERREVEVPPEEAFGEYKKELVVRVPVKRLRRMNIPVRVGEEVEAGGRRGKIIRVTERFAFIDFNHPLAGKKLKIEVEVVGKVDSVEDKARILAARALGLDPDKIHAEVREGGKEITLKLPPEVLGLSDLDALLAKAVSDVREYLSPRKVDVVISIEFPEEAREEAEASDTGEGGEAEGESEQAAEPGGGEERQEG	failed
FFTPPHIVQLCVRLVDDFADGMTFHDPTVGSGGMLTEAAKYYREAQGGDPSKLTFTGQEINPDIAAIARMNLSLHTLNGEIERGDSLASPGFTDGDDLERFDRVLANFPFSADWAKDDLQDDQYGRFDWHTKLPRADRGDYAFIMHIAEQLKEPDCGDESGGKAAIVIPHGVLFRKHEQRYRQPMLENDLVEAIVGLPENLFQNNSIPSAILVLNTDKPADREGEVQFIHAADEAFYEELSNQNELTDDGLDHIVENFDDWTTE	failed
MKKKDMNKQVKIQDAVAAIILAEGPAGVSTTKVAKRVGIAQSNVYLYFKNKQALIDSVYARETNRILSTTDLDRLSDSTIDVTTRIRLYVQQVYDYSLANPDSLTIIQQIKALNGQGMTISAADADPNNIVANLLTAAIDAKVIKQLPVSLHMGVVFSTIHTHTTNISKGRYAQDQYTFGDIFQMIWDAMKQD	not failed
MQSILKPITNLFTMIFQAIHGFVASLDIFGVGAGYVITIFLLTLLVRLILLPLNIKQTRSQQKMQEIQPEIAKLQKKYKNNPEKAQQEMMKLYKENNVNPMSGCLPLLIQMPILFALYYVFTGLTELQGVSFLWLGDLWAPDRTFILPILSAATTYLSSLLMTKFTQSQAGGAPGGMNMNTMNIVMAGMMGVMSIQFPSMLVLYWVIGNLIQMVQTYFIVVLPSRKRAKEKEQYKDIK	failed
MYESANVSDDADRTAFRRAEKKYKLYYEQDSKFSRKKKLPKPIDLSELLDFNLISQNFNNDGVLPDGIRVSKVDSSPVFCIDNRPGFYFIPDALSLKEQCKWIKESLTSFPQPPNRTNHNAIYGPIDDLFDSAKENKVLVQDDLTNNKWKFYEEVDIEKATRSSCKSVSASVLLRKLRWSTLGLQFDWSKRNYDVSLPHNNIPDALCQLAKTHAAIAMPDGEEFRPEGAIVNYFGIGDTLGGHLDDMEADWSKPIVSMSLGCKAIFLLGGKSKDDPPHAMYLRSGDVVLMAGEARECFHGNLLHFQLDGIPRIFTGEENADIGALESELSHESGHFFAEYIKTSRININIRQVF	failed
MSASTSSHRPIKGILKNKSSSGSSVATSGQQSGGTIQDVKRKKSQKWDESSILAAHRATYRDYDLMKANEPGTSYMSVQDNGEDSVRDVEGEDSVRGVEGKEATDASDHSCEVDEQESSEAYMRKILLHKQEKKRQFEMRRRLHYNEELNIKLARQLMWKELQSEDNENEETPQGTNEEKTAAEESEEAPLTGGLQTQSCDP	failed
YTEPQIDDTNDGIVFSELTHPLIADAVANDFSLSQNILLTGSNASGKSTFMKSIAINIILASAIQTVTASKFVYQPGIVFTSMANADDVLSGDSYFMAELKSIKRIVEIPDNQKIYCFIDEIFKGTNTTERIAASESVLSFLHEKSNFRVIAATHDIELAELLKQRYENYHFNEVIENNNIHFDYKIKPGKANTRNAIELLKITSFPAKIYERAKDNVSN	failed
